Test results reported in publication PMC10850787.

Experiments:
[1] = target: PaFtsH2-6xHis (FtsH2 of Pseudomonas aeruginosa SG17M clone C, tLST genomic island) (Pseudomonas aeruginosa SG17M); experiment: negative-stain electron microscopy; detergent-solubilised enzyme at 0.4 mg/ml in storage buffer with 0.1% Igepal, 2% uranyl acetate; 3D reconstruction with C6 symmetry, about 22 A
[2] = target: PaFtsH2-6xHis (FtsH2 of Pseudomonas aeruginosa SG17M clone C, tLST genomic island) (Pseudomonas aeruginosa SG17M); experiment: SEC; analytical Superdex 200 (increase) 3.2/3.0 gel filtration column in Buffer PD (50 mM Tris-HCl pH 8.0, 80 mM NaCl, 10% glycerol, 2 mM beta-mercaptoethanol, 0.1% NP-40); native mass from molecular weight standards; hexamer plus NP-40 micelles
[3] = target: PaFtsH1-6xHis (FtsH1 of Pseudomonas aeruginosa SG17M clone C) (Pseudomonas aeruginosa SG17M); experiment: negative-stain electron microscopy; detergent-solubilised enzyme at 0.4 mg/ml in storage buffer with 0.1% Igepal, 2% uranyl acetate; 3D reconstruction with C6 symmetry, about 22 A
[4] = target: PaFtsH1-6xHis (FtsH1 of Pseudomonas aeruginosa SG17M clone C) (Pseudomonas aeruginosa SG17M); experiment: SEC; analytical Superdex 200 (increase) 3.2/3.0 gel filtration column in Buffer PD (50 mM Tris-HCl pH 8.0, 80 mM NaCl, 10% glycerol, 2 mM beta-mercaptoethanol, 0.1% NP-40); native mass from molecular weight standards; hexamer plus NP-40 micelles

stoichiometry N [1]	stoichiometry N [2]	stoichiometry N [3]	stoichiometry N [4]	Substance
6	6	–	–	PaFtsH2-6xHis (FtsH2 of Pseudomonas aeruginosa SG17M clone C, tLST genomic island) (enzyme)
–	–	6	6	PaFtsH1-6xHis (FtsH1 of Pseudomonas aeruginosa SG17M clone C) (enzyme)
